The chains are these.
T1: recombinant histidine-tagged canine interleukin-13 (cIL-13) (canine, UniProt Q9N0W9 19-131, N-linked glycans attached to asparagine residues at positions 38, 48, 56, and 71)
T1 sequence: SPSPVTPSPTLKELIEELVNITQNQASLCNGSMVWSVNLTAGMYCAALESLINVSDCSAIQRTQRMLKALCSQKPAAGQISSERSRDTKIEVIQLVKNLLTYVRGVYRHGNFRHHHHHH

B1: 32A10-#20 mouse monoclonal antibody (antibody, V domains shown)
VH: EVQLQQSGPELVKPGASVKVSCKTSGYSFTDYPIYWVRQSHGESLEWIGYIDPYNGGTTYNQNFKDKATLTVDKSSSTAFMHLNSLTSEDSAVYFCATAVVATDVMENWGQGTSVTVSS
VL: DIVLTQSQKFMSTSVGDRVSITCKASQNVRNAVAWFQQKPGQSPKALIYLASNRYTGVPDHFTGSGSGTDFTLTISNVQSEDLADYFCLQHWNYPLTFGAGTKLELK
notes: also called Mouse 32A10; Parental antibody (Mouse 32A10)
B2: Chimeric 32A10 CO (antibody, V domains shown)
VH: B1 VH with E1Q, Q5K, N84Y
VL: B1 VL
notes: also called Chimeric antibody (CO type)
B3: Ab4 (antibody, V domains shown)
VH: EVQLVQSGAEVKKPGASVKVSCKTSGYTFIDYPMYWVRQAPGAGLEWMGYIDPYNGATSYNQNFKGRVTLTADKSTSTAYMELSSLRAGDIAVYYCATAVVATDVMENWGQGTLVTVSS
VL: EIVMTQSPASLSLSQEERVTITCRASQNVRNALAWYQQKPGQAPKLLIYLTSNRYTGVPSRFSGSGSGTDFTFTISSLEPEDVAVYYCLQHWNYPLTFGAGTKVELK
notes: Caninized antibody
B4: Ab2 (antibody, V domains shown)
VH: B3 VH with N63K, K65Q, K74T, T98R
VL: B3 VL with M4L, R24K, L33V, Y36F, L46A, T51A, F73L, V85D, Y87F
notes: Caninized antibody
B5: Ab10 (antibody, V domains shown)
VH: B3 VH
VL: DIVMTQTPLSLSVSPGETASISCKASQNLRNALAWFRQKPGQSPQALIYLVSNRYPGVPDRFSGSGSGTDFTLRISRVEAEDTGVYYCLQHWQYPLTFGAGTKVELK
notes: Caninized antibody
B6: Ab22 (antibody, V domains shown)
VH: B3 VH with K12V, T28S, I30T, M34I, M48I, A57G, S59T, G66D
VL: B5 VL with M4L, L29V, L33V, V51A, P56T, V85D, Y87F, Q93N
notes: Caninized antibody
B7: Ab21 (antibody, V domains shown)
VH: B3 VH with K12V, T28S, I30T, M34I, M48I, A57G, S59T, G66D
VL: B3 VL with M4L, R24K, L33V, Y36F, L46A, T51A, F73L, V85D, Y87F
notes: Caninized antibody
B8: Ab11 (antibody, V domains shown)
VH: B3 VH with N63K, K65Q, K74T, T98R
VL: B5 VL
notes: Caninized antibody
B9: Ab9 (antibody, V domains shown)
VH: B3 VH with N63K, K65Q, K74T, T98R
VL: B5 VL with M4L, L29V, L33V, V51A, P56T, V85D, Y87F, Q93N
notes: Caninized antibody
B10: Ab12 (antibody, V domains shown)
VH: B3 VH with K12V, T28S, I30T, M34I, M48I, A57G, S59T, G66D
VL: B5 VL with N28S, N31S, A46R, Y94F
notes: Caninized antibody
B11: Ab8 (antibody, V domains shown)
VH: B3 VH with N63K, K65Q, K74T, T98R
VL: B3 VL with N28S, N31S, L50G, N93S
notes: Caninized antibody
B12: Ab3 (antibody, V domains shown)
VH: B3 VH with K12V, T28S, I30T, M34I, M48I, A57G, S59T, G66D
VL: B3 VL
notes: Caninized antibody
B13: Ab14 (antibody, V domains shown)
VH: B3 VH with N63K, K65Q, K74T, T98R
VL: B5 VL with N28S, N31S, A46R, Y94F
notes: Caninized antibody
B14: Ab5 (antibody, V domains shown)
VH: B3 VH with N63K, K65Q, K74T, T98R
VL: B3 VL
notes: Caninized antibody
B15: Ab1 (antibody, V domains shown)
VH: B3 VH
VL: B3 VL with M4L, R24K, L33V, Y36F, L46A, T51A, F73L, V85D, Y87F
notes: Caninized antibody
B16: Ab24 (antibody, V domains shown)
VH: B3 VH
VL: B5 VL with M4L, L29V, L33V, V51A, P56T, V85D, Y87F, Q93N
notes: Caninized antibody
B17: Ab6 (antibody, V domains shown)
VH: B3 VH with K12V, T28S, I30T, M34I, M48I, A57G, S59T, G66D
VL: B3 VL with N28S, N31S, L50G, N93S
notes: Caninized antibody
B18: Ab23 (antibody, V domains shown)
VH: B3 VH with K12V, T28S, I30T, M34I, M48I, A57G, S59T, G66D
VL: B5 VL
notes: Caninized antibody

Substitutions are numbered along the chain they refer to. “And” between values parts separate entries of the source, which are not always exact repeats. Identical values can stand only once.

The term EC50 denotes the concentration at which the effect is half-maximal.

One assay addresses T1, recombinant histidine-tagged canine …. Description: cell-based or functional assay.
With B1, the “inhibition of IL-13-dependent TF-1 cell proliferation, IC50” value lay in the range of 2.9 to 4.2 nM.

The target is the same in the next assay. The assay is described as follows: cell-based or functional assay. The source holds these as a separate data set.
In the case of B1, the “TF-1 cell proliferation inhibition IC50 (Average)” value is 437 ng/ml and 2.91 nM; the “TF-1 cell proliferation inhibition IC50 (Test 1)” value was 494 ng/ml and 3.29 nM; the “TF-1 cell proliferation inhibition IC50 (Test 2)” value is 492 ng/ml and 3.28 nM; the “TF-1 cell proliferation inhibition IC50 (Test 3)” value was 325 ng/ml and 2.17 nM.

The target is the same in another assay. Description: ELISA, His-tagged cIL-13 on nickel-coated plate. As to the method:
In one embodiment of the present disclosure, recombinant canine IL-13 (cIL-13) protein with a histidine tag was dispensed onto nickel-coated plates (Thermo Fisher, #15442) at 100 ng/100 μL per well and incubated at room temperature for 1 hour. The plates were then washed three times with 1×PBST, and serial dilutions of the chimeric antibodies in 1×PBS were added and incubated at room temperature for 1 hour to allow antigen-antibody binding. After three washes with 1×PBST, an HRP-conjugated secondary antibody that cross-reacts with canine antibodies was diluted 1:100 in casein buffer and added at 100 μL per well, followed by incubation at 37° C. for 30 minutes. The HRP-conjugated secondary antibody used may be Jackson ImmunoResearch, #115-036-071, and the casein buffer may be Thermo Fisher Scientific, #37528; however, these examples are not intended to limit the scope of the present disclosure. After another three washes with 1×PBST, TMB was added to initiate color development, and the reaction was terminated by the addition of an equal volume of 1.0 N sulfuric acid.
Background: ELISA stands for enzyme-linked immunosorbent assay.
Regarding B1, the EC50 was 0.218 µg/mL and 1.45 nM.
Regarding B2, the EC50 is 0.162 µg/mL and 1.08 nM.

For a further assay the target is unchanged. The assay is described as follows: cell-based or functional assay. The source holds these as a separate data set.
On to B1, for which the “Inhibitory Activity on TF-1 Cell Proliferation IC50” value stood at 3.97 nM.

For the next assay the target is unchanged. Description: ELISA, His-tagged cIL-13 on nickel plate. As to the method: A conventional ELISA method was used to assess the antigen reactivity of the caninized antibodies. The inventors of the present invention coated 96-well nickel plates with His-tagged cIL-13 at a concentration of 1 μg/mL and incubated the plates at room temperature for 1 hour. Wells were washed three times using 200 μL of wash buffer per well; the wash buffer consisted of 1×PBS containing 0.1% Tween-20. In one embodiment of the present disclosure, diluted antibodies were added to the wells at 100 μL per well and incubated again at room temperature for 1 hour. The dilution buffer used was a 1:1 mixture of 25 mL of 1× casein solution and 25 mL of 1×PBS. Next, 50 μL of HRP-conjugated goat anti-human IgG was diluted in 10 mL of dilution buffer and dispensed at 100 μL per well, followed by incubation at room temperature for 1 hour. The wells were then washed three times with 200 μL of wash buffer. TMB substrate (50 μL per well) was added. The plates were incubated at room temperature for 10 minutes. The reaction was stopped by adding 50 μL per well of 1 N sulfuric acid as a stop solution, and absorbance was measured at 450 nm using a spectrophotometer.
Consider B3, for which the EC50 stood at 0.0572 µg/mL.
In the case of B4, the EC50 amounted to 0.0782 µg/mL.
As for B5, the EC50 came out at 0.0819 µg/mL.
Same read-out and setting: the result for B6 reads 0.137 µg/mL.
On to B7, for which the EC50 stood at 0.122 µg/mL.
On the same count and under the same terms, the same measure for B8: 0.111 µg/mL; for B9: 0.0926 µg/mL.
With B10, the EC50 stood at 4.39 µg/mL.
For B11, the EC50 is 12.4 µg/mL.
With B12, the EC50 turned out to be 0.0459 µg/mL.
The same measure, in the same setting: the same measure for B13: 1.78 µg/mL.
Consider B14, for which the EC50 came to 0.0765 µg/mL.
B15: the EC50 turned out to be 0.0564 µg/mL.
Regarding B16, the EC50 was 0.134 µg/mL.
Take B17: the EC50 worked out at 0.246 µg/mL.
On the same count and under the same terms, the same measure for B18: 0.108 µg/mL.

A further assay shares this target. The assay is described as follows: cell-based or functional assay. This is another data set of the same source.
As for B3, the “TF-1 cell proliferation inhibition IC50” value is 71.5 nM.
Turning to B6, the “TF-1 cell proliferation inhibition IC50” value was 0.98 nM.
Same read-out and setting: the same measure for B7: 1.13 nM; for B12: 52.7 nM; for B14: 34.2 nM.
For B16, the “TF-1 cell proliferation inhibition IC50” value amounted to 4.09 nM.
Same read-out and setting: the same measure for B18: 35.2 nM.

The target is the same in a further assay. The assay is described as follows: ELISA, cIL-13-coated plate.
With B1, the EC50 was 0.0694 µg/mL and 0.463 nM.

Source of the values: patent publication US20260234238A1 (GEOVISTA, published 2026).
